US20090041777A1 (UNIVERSITY OF MASSACHUSETTS, published 2009)

Columns and labels:
[1] = target: T1, ERA-CO glycoprotein (codon-optimized full-length rabies G glycoprotein, ERA strain, amino acids 1-524, … (rabies virus, ERA strain, UniProt P03524 20-524)); test: flow cytometry on transfected 293T cells, PE anti-human IgG
T1 sequence: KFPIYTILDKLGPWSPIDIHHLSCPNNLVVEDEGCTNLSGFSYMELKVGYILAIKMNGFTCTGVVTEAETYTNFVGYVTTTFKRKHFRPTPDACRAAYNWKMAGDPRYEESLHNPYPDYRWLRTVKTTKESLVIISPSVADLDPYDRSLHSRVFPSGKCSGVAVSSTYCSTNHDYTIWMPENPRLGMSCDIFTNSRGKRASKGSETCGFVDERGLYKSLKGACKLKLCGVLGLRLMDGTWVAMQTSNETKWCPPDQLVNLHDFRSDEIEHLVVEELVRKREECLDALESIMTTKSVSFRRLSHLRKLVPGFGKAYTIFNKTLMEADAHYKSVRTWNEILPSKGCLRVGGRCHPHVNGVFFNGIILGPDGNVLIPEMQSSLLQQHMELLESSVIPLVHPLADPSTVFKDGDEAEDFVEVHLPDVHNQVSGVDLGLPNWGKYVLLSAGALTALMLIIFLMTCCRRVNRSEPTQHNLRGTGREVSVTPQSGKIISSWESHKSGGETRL

[2] = target: T2, ERA-CO20-439 (secreted soluble ectodomain of codon-optimized ERA rabies G glycoprotein, Myc/His tagged) (rabies virus, ERA strain, UniProt P03524 20-439); test: Biacore (SPR) on the ectodomain region of codon-optimized rabies G glycoprotein
T2 sequence: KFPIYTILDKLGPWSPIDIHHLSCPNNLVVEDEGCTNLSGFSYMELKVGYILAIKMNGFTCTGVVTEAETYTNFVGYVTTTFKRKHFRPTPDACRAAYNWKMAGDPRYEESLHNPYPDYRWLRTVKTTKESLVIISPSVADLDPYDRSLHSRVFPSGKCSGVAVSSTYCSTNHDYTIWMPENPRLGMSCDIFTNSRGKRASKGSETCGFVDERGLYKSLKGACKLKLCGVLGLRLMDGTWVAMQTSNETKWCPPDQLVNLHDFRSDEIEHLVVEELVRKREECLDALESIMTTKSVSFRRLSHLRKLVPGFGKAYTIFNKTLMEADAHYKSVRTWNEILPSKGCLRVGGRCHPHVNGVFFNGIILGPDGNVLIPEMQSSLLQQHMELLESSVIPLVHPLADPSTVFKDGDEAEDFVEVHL

B1: HuMab 17C7 (antibody, V domains shown)
VH: QVQLVESGGGVVQPGRSLRLSCAASGFTFSTYAMHWVRQAPGKGLEWVAVVSYDGRTKDYADSVKGRFTISRDNSKNTLYLQMNSLRTEDTAVYFCARERFSGAYFDYWGQGTLVTVSS
VL: EIVLTQSPATLSLSPGERATLSCRASQSVSSYLAWYQQKPGQAPRLLIYDASNRATGIPARFSGSGSGTDFTLTISSLEPEDFAVYSCQQRNNWPPTFGGGTKVEIK
[1]
  EC50 (read off the curve): ~30 nM
[2]
  Kd: ≤ 13.6 nM
